B1: PfPrx1m wild type (enzyme, P. falciparum)
chain: SLVTKKAYNFTAQGLNKNNEIINVDLSSFIGQKYCCLLFYPLNYTFVCPTEIIEFNKHIKDFENKNVELLGISVDSVYSHLAWKNMPIEKGGIGNVEFTLVSDINKDISKNYNVLYDNSFALRGLFIIDKNGCVRHQTVNDLPIGRNVQEVLRTIDSIIHVDTSGEVCPINWKKGQKAFKPTTESLIDYMNNANKNV
notes: PfPrx1m (thioredoxin peroxidase 2), Plasmodium falciparum, mitochondrial; peroxidatic C67, resolving C187, further C54, C55, C152; also called PfPrx1m wt; thioredoxin peroxidase 2; source: E. coli M15 (pQE30), purified (Ni-NTA); not shown: His6, N-terminal, kept; copies: 10
B2: PfPrx1a wild type (enzyme, P. falciparum, UniProt Q8IL80 1-195, looked up)
chain: MASYVGREAPYFKAEAVFADNTFGEVNLHDFIGKKYVLLYFYPLDFTFVCPSEIIALDKALDAFKERNVELIGCSVDSKYTHLAWKKTPLTKGGIGNIQHTLISDITKSISRSYNVLFGDSVSLRAFVLIDKQGVVQHLLVNNLAIGRSVEEVLRIIDAVQHHEQHGDVCPANWKKGKVAMKPSEEGVSEYLSKL
notes: PfPrx1a (thioredoxin peroxidase 1), Plasmodium falciparum; peroxidatic C50, resolving C170, further C74; also called PfPrx1a wt; thioredoxin peroxidase 1; source: E. coli M15 (pQE30), purified (Ni-NTA); not shown: His6, N-terminal, kept; copies: 10

Columns and labels:
[1] = molecular target: the molecule itself; test: not stated; 6xHis-tagged Prx reduced with DTT, in purification buffer and in coupling buffer; method not given
recombinant PfSAHH wt = molecular target: T1, recombinant PfSAHH wt (P. falciparum, UniProt P50250 1-479); test: pull-down; 2 mg reduced PfPrx1a wt on CNBr-activated Sepharose 4B; 8 mg purified recombinant PfLDH wt or PfSAHH wt (not pre-reduced); extensive washing; eluted with 10 mM DTT; silver-stained 12% SDS-PAGE; conditions: both partners purified
T1 construct: S-adenosyl-L-homocysteine hydrolase, Plasmodium falciparum, wild type; not pre-reduced in the assay; also called S-adenosyl-L-homocysteine hydrolase; source: recombinant, purified (produced as previously described)
T1 sequence (P50250 whole entry): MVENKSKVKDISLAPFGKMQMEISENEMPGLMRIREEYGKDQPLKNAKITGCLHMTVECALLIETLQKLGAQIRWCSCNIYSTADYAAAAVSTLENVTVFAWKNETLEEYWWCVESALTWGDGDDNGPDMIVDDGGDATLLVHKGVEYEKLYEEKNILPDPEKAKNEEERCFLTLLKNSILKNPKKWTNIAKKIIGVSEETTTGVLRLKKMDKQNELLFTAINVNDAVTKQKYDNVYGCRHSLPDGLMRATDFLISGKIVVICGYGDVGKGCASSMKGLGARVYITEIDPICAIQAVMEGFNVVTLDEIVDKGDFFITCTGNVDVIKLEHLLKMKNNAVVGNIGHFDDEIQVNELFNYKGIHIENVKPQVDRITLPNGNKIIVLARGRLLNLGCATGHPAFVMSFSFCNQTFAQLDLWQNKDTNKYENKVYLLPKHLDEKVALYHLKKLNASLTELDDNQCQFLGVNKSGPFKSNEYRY

Binder | stoichiometry N [1] | binding result (recombinant PfSAHH wt)
B1 | 10 | 
B2 | 10 | binds

Source: publication PMC6753162, “The interactome of 2-Cys peroxiredoxins in Plasmodium falciparum” (Scientific Reports, 2019)
